Results from patent US20090172832A1 (published 2009).

Target: T1, R. rubrum RUBISCO LSU (RRrbcLSU, product of the RRrbcM gene) (Rhodospirillum rubrum, UniProt Q2RRP5 1-466)
T1 construct: The purified R. rubrum RUBISCO used as blot control is filed under this molecule too; also called R. rubrum RUBISCO protein; 55-kD RUBISCO-like protein
T1 sequence: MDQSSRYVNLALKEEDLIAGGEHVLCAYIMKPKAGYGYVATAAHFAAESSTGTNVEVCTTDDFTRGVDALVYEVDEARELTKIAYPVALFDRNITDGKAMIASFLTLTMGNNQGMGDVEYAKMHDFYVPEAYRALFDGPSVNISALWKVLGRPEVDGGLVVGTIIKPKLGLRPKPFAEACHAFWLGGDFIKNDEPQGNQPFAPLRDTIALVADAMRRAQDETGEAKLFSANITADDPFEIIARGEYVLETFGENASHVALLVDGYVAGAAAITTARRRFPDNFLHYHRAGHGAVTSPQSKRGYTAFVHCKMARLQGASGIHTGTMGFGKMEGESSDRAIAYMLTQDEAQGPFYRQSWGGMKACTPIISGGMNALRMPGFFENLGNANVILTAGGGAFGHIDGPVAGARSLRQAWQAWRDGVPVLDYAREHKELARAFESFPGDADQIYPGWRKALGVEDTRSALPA
Assay: SDS-PAGE of crude leaf extract of plant 1074 (Coomassie stain); inferred because SSU did not accumulate

binding result: no binding
B1: endogenous tobacco RUBISCO small subunit (SSU) (enzyme, Nicotiana tabacum, UniProt P69249 58-180, looked up)
chain: MQVWPPINKKKYETLSYLPDLSQEQLLSEVEYLLKNGWVPCLEFETEHGFVYRENNKSPGYYDGRYWTMWKLPMFGCTDATQVLAEVEEAKKAYPQAWIRIIGFDNVRQVQCISFIAYKPEGY
notes: Endogenous protein in leaf extracts; also called endogenous SSU; tobacco SSU
